This note sets out measurements from patent publication US20100184837A1.

For test [1], the target named is natural HCV acceptors on human liver cancer cells Huh 7.5.1. As to the kind of experiment: flow cytometry, binding to Huh 7.5.1 cells (FIG. 6), control protein.
The target is the same in test [2]. As to the kind of experiment: flow cytometry, binding to Huh 7.5.1 cells (FIG. 6), no aptamer.
Test [3] shares this target. As to the kind of experiment: flow cytometry, binding to Huh 7.5.1 cells (FIG. 6), with a single DNA aptamer present as competitor.
Test [4] has the same target. The test can be described thus: flow cytometry, binding to Huh 7.5.1 cells (FIG. 6), with the thirteenth-round DNA aptamer library present as competitor.

In test [1], protein GST yielded a binding rate of 1%.

For GST-E2, the binding rate in test [2] was 36.7%; in test [3], 15.4%; in test [4], 23.2%.
